Test results as given in patent US6534281.

How the values were obtained:
[1] = target: human C-peptide (human); test: sandwich immunoassay, one-step; 9101 on particles, labeled antibody 9103
[2] = target: human C-peptide (human); test: sandwich immunoassay, two-step; 9101 on particles, labeled antibody 9103
[3] = target: human C-peptide (human); test: sandwich immunoassay, one-step; 9101 on particles, labeled antibody CPT-3F-11
[4] = target: human C-peptide (human); test: sandwich immunoassay, two-step; 9101 on particles, labeled antibody CPT-3F-11
[5] = target: human C-peptide (human); test: ELISA on immobilized C-peptide; labeled antibody 10 ug/ml, free C-peptide 0 ug/ml
[6] = target: human C-peptide (human); test: ELISA on immobilized C-peptide; labeled antibody 10 ug/ml, free C-peptide 10 ug/ml
[7] = target: human C-peptide (human); test: ELISA on immobilized C-peptide; labeled antibody 0.1 ug/ml, free C-peptide 0 ug/ml
[8] = target: human C-peptide (human); test: ELISA on immobilized C-peptide; labeled antibody 1.0 ug/ml, free C-peptide 0 ug/ml
[9] = target: human C-peptide (human); test: ELISA on immobilized C-peptide; labeled antibody 0.1 ug/ml, free C-peptide 10 ug/ml
[10] = target: human C-peptide (human); test: ELISA on immobilized C-peptide; labeled antibody 1.0 ug/ml, free C-peptide 10 ug/ml
[11] = target: human C-peptide (human); test: ELISA on immobilized C-peptide; labeled antibody 10 ug/ml, free C-peptide 0.1 ug/ml
[12] = target: human C-peptide (human); test: ELISA on immobilized C-peptide; labeled antibody 10 ug/ml, free C-peptide 1.0 ug/ml
[13] = target: human C-peptide (human); test: ELISA on immobilized C-peptide; labeled antibody 0.1 ug/ml, free C-peptide 0.1 ug/ml
[14] = target: human C-peptide (human); test: ELISA on immobilized C-peptide; labeled antibody 0.1 ug/ml, free C-peptide 1.0 ug/ml
[15] = target: human C-peptide (human); test: ELISA on immobilized C-peptide; labeled antibody 1.0 ug/ml, free C-peptide 0.1 ug/ml
[16] = target: human C-peptide (human); test: ELISA on immobilized C-peptide; labeled antibody 1.0 ug/ml, free C-peptide 1.0 ug/ml
[17] = target: human C-peptide (human); test: ELISA on immobilized C-peptide; labeled antibody 0.0 ug/ml (blank), free C-peptide 0 ug/ml
[18] = target: human C-peptide (human); test: ELISA on immobilized C-peptide; labeled antibody 0.0 ug/ml (blank), free C-peptide 10 ug/ml
[19] = target: human C-peptide (human); test: ELISA on immobilized C-peptide; labeled antibody 0.0 ug/ml (blank), free C-peptide 0.1 ug/ml
[20] = target: human C-peptide (human); test: ELISA on immobilized C-peptide; labeled antibody 0.0 ug/ml (blank), free C-peptide 1.0 ug/ml
[21] = target: human C-peptide (human); test: ELISA on immobilized C-peptide; labeled antibody 10 ug/ml, free C-peptide 0 ug/ml (reference)
[22] = target: human C-peptide (human); test: ELISA on immobilized C-peptide; labeled antibody 0.1 ug/ml, free C-peptide 0 ug/ml (reference)
[23] = target: human C-peptide (human); test: ELISA on immobilized C-peptide; labeled antibody 1.0 ug/ml, free C-peptide 0 ug/ml (reference)
[24] = target: human proinsulin (human) (UniProt P01308); test: sandwich immunoassay, one-step, against C-peptide calibration; proinsulin 50 ng/ml; 9101 on particles, labeled antibody 9103
[25] = target: human proinsulin (human) (UniProt P01308); test: sandwich immunoassay, two-step, against C-peptide calibration; proinsulin 50 ng/ml; 9101 on particles, labeled antibody 9103
[26] = target: human proinsulin (human) (UniProt P01308); test: sandwich immunoassay, one-step, against C-peptide calibration; proinsulin 200 ng/ml; 9101 on particles, labeled antibody 9103
[27] = target: human proinsulin (human) (UniProt P01308); test: sandwich immunoassay, one-step, against C-peptide calibration; proinsulin 400 ng/ml; 9101 on particles, labeled antibody 9103
[28] = target: human proinsulin (human) (UniProt P01308); test: sandwich immunoassay, two-step, against C-peptide calibration; proinsulin 200 ng/ml; 9101 on particles, labeled antibody 9103
[29] = target: human proinsulin (human) (UniProt P01308); test: sandwich immunoassay, two-step, against C-peptide calibration; proinsulin 400 ng/ml; 9101 on particles, labeled antibody 9103
[30] = target: human proinsulin (human) (UniProt P01308); test: sandwich immunoassay, one-step, against C-peptide calibration; proinsulin 50 ng/ml; 9101 on particles, labeled antibody CPT-3-F11
[31] = target: human proinsulin (human) (UniProt P01308); test: sandwich immunoassay, two-step, against C-peptide calibration; proinsulin 50 ng/ml; 9101 on particles, labeled antibody CPT-3-F11
[32] = target: human proinsulin (human) (UniProt P01308); test: sandwich immunoassay, one-step, against C-peptide calibration; proinsulin 200 ng/ml; 9101 on particles, labeled antibody CPT-3-F11
[33] = target: human proinsulin (human) (UniProt P01308); test: sandwich immunoassay, one-step, against C-peptide calibration; proinsulin 400 ng/ml; 9101 on particles, labeled antibody CPT-3-F11
[34] = target: human proinsulin (human) (UniProt P01308); test: sandwich immunoassay, two-step, against C-peptide calibration; proinsulin 200 ng/ml; 9101 on particles, labeled antibody CPT-3-F11
[35] = target: human proinsulin (human) (UniProt P01308); test: sandwich immunoassay, two-step, against C-peptide calibration; proinsulin 400 ng/ml; 9101 on particles, labeled antibody CPT-3-F11
[36] = target: modified C-peptide (human C-peptide having Arg-Arg bound to its N-terminal and Lys-Arg bound to its C-terminal) (human); test: sandwich immunoassay, one-step, against C-peptide calibration; modified C-peptide 5 ng/ml; 9101 on particles, labeled antibody 9103
[37] = target: modified C-peptide (human C-peptide having Arg-Arg bound to its N-terminal and Lys-Arg bound to its C-terminal) (human); test: sandwich immunoassay, two-step, against C-peptide calibration; modified C-peptide 5 ng/ml; 9101 on particles, labeled antibody 9103
[38] = target: modified C-peptide (human C-peptide having Arg-Arg bound to its N-terminal and Lys-Arg bound to its C-terminal) (human); test: sandwich immunoassay, one-step, against C-peptide calibration; modified C-peptide 5 ng/ml; 9101 on particles, labeled antibody CPT-3F-11
[39] = target: modified C-peptide (human C-peptide having Arg-Arg bound to its N-terminal and Lys-Arg bound to its C-terminal) (human); test: sandwich immunoassay, two-step, against C-peptide calibration; modified C-peptide 5 ng/ml; 9101 on particles, labeled antibody CPT-3F-11

Chain of human C-peptide (human) (peptide, as listed by the source): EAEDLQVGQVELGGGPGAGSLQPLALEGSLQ
Chain of modified C-peptide (human C-peptide having Arg-Arg bound to its N-terminal and Lys-Arg bound to its C-terminal) (human) (peptide, as listed by the source): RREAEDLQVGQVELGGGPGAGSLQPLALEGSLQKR
Chain of UniProt P01308 (P01308 25-110): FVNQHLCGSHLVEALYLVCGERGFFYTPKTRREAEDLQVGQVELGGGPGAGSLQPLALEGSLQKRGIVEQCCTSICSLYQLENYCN

2S/N value [1]: 0.222 ng/mL
2S/N value [2]: 0.11 ng/mL
2S/N value [3]: 0.008 ng/mL
2S/N value [4]: 0.009 ng/mL
Absorbance (absorbance at 405 nm) [5]: 1.98
Absorbance (absorbance at 405 nm) [6]: 0.001
Binding Ratio [6]: 0.1%
Absorbance (absorbance at 405 nm) [7]: 1.26
Absorbance (absorbance at 405 nm) [8]: 1.69
Absorbance (absorbance at 405 nm) [9]: 0
Binding Ratio [9]: 0%
Absorbance (absorbance at 405 nm) [10]: 0.001
Binding Ratio [10]: 0%
Absorbance (absorbance at 405 nm) [11]: 0.331
Binding Ratio [11]: 17.1%
Absorbance (absorbance at 405 nm) [12]: 0.051
Binding Ratio [12]: 2.6%
Absorbance (absorbance at 405 nm) [13]: 0.141
Binding Ratio [13]: 11.1%
Absorbance (absorbance at 405 nm) [14]: 0.013
Binding Ratio [14]: 1%
Absorbance (absorbance at 405 nm) [15]: 0.298
Binding Ratio [15]: 17.6%
Absorbance (absorbance at 405 nm) [16]: 0.042
Binding Ratio [16]: 2.5%
Absorbance (absorbance at 405 nm) [17]: 0
Binding Ratio [17]: 0%
Absorbance (absorbance at 405 nm) [18]: 0
Binding Ratio [18]: 0%
Absorbance (absorbance at 405 nm) [19]: 0
Binding Ratio [19]: 0%
Absorbance (absorbance at 405 nm) [20]: 0
Binding Ratio [20]: 0%
Binding Ratio [21]: 100%
Binding Ratio [22]: 100%
Binding Ratio [23]: 100%
Cross-reactivity (%) to Human Proinsulin [24]: 19.7%
Cross-reactivity (%) to Human Proinsulin [25]: 12.8%
Cross-reactivity (%) to Human Proinsulin [26]: 18.1%
Cross-reactivity (%) to Human Proinsulin [27]: > 15%
Cross-reactivity (%) to Human Proinsulin [28]: 9.8%
Cross-reactivity (%) to Human Proinsulin [29]: 8.4%
Cross-reactivity (%) to Human Proinsulin [30]: 19.6%
Cross-reactivity (%) to Human Proinsulin [31]: 10.7%
Cross-reactivity (%) to Human Proinsulin [32]: 17.8%
Cross-reactivity (%) to Human Proinsulin [33]: 11.7%
Cross-reactivity (%) to Human Proinsulin [34]: 11.8%
Cross-reactivity (%) to Human Proinsulin [35]: 12.1%
Cross-reactivity (%) to Modified C-peptide [36]: < 0.5%
Cross-reactivity (%) to Modified C-peptide [37]: < 0.7%
Cross-reactivity (%) to Modified C-peptide [38]: 9.3%
Cross-reactivity (%) to Modified C-peptide [39]: 1.7%
Substance: anti-human C-peptide monoclonal antibody 9101 (Medix Biochemica)
